Results published in article PMC7991746.

Assays:
[1] = molecular target: DUSP3-C124S mutant (phosphatase dead) (UniProt P51452); assay: SPR; Biacore T100; DUSP3-WT or DUSP3-C124S immobilised on CM5 sensorchip (200 RU); protein analytes 12.5-1,000 nM; kinetic assays at 25°C, HBS-EP buffer, 10 μl/min, 120 s association, 300 s dissociation; three independent experiments
[2] = molecular target: DUSP3-WT (dual-specificity phosphatase 3) (UniProt P51452); assay: as above
[3] = molecular target: dual-specificity phosphatase 3 (DUSP3), wild type (UniProt P51452); assay: SPR; Biacore T100; DUSP3-WT or DUSP3-C124S immobilised on CM5 sensorchip (200 RU); analytes 12.5 to 1,000 nM; 25°C; HBS-EP buffer; association 120 s, dissociation 300 s, 10 μl/min
Sequence of dual-specificity phosphatase 3 (DUSP3), wild type (P51452 whole entry): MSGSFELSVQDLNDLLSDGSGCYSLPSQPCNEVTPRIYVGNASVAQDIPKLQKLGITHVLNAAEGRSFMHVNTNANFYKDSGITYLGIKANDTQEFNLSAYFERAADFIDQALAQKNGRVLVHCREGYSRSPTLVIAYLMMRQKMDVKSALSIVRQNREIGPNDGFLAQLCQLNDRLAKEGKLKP

Sequence of DUSP3-WT (dual-specificity phosphatase 3) (P51452 whole entry): as above
Sequence of DUSP3-C124S mutant (phosphatase dead) (P51452 whole entry C124S): as the sequence (P51452 whole entry) above, with C124S counted along it

Kd [1] [nM] | Kd [2] [nM] | fold higher affinity than ERK1 [3] [fold] | fold higher affinity than NPM 9-122 [3] [fold] | Substance
11.5 | 17.2 | – | – | NPM full length (nucleophosmin) (natural protein)
– | – | 10 | 17 | nucleophosmin (NPM) full length (natural protein)
393 | 294 | – | – | truncated N-terminal of NPM 9-122 (domain or fragment)
